This passage reports Kd results from WO2008121160A2 (dated 2008).

For this test, the target named is T1, CD5-His-GST (human, UniProt P06127 25-372).
T1 construct: Expressed in 293T cells, purified by nickel chromatography; also called Recombinant CD5; Tagged CD5 antigen; not shown: C-terminal Factor Xa site; 6X His tag; GST protein
T1 sequence: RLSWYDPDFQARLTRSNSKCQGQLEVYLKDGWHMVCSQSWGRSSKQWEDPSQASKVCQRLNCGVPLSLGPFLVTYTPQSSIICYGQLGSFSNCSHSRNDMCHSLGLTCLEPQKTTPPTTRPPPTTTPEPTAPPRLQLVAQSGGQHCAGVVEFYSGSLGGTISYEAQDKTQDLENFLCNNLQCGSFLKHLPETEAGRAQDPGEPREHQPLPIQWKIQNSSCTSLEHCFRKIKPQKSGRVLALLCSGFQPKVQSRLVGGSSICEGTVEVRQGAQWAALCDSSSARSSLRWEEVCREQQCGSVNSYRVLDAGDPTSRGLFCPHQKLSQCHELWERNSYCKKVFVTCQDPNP
Description: Biacore (SPR), global Langmuir fits.

B1: 5D7_H0L0_IgG1_WT (antibody, V domains shown)
VH: QVTLKESGPGILKPSQTLSLTCSFSGFSLSTSGMGVGWIRQPSGKGLEWLAHIWWDDDVYYNPSLKNQLTISKDASRDQVFLKITNLDTADTATYYCVRRRATGTGFDYWGQGTTLTVSS
VL: NIVMTQSHKFMSTSVGDRVSIACKASQDVGTAVAWYQQKPGQSPKLLIYWTSTRHTGVPDRFTGSGSGTDFTLTITNVQSEDLADYFCHQYNSYNTFGSGTRLELKR
notes: also called chimeric 5D7; H0L0 5D7
Regarding B1, the Kd is about 1.5 nM.
